System: c-Src
Experiment: phosphorylation enrichment, bacterial display (enrichment ratio); higher = better substrate or ligand; peptides without Tyr show the background
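For SH2 binding enrichment of the phosphorylated peptide, bacterial display in this document: peptide library displayed on the E. coli surface as eCPX fusions, selected cells deep-sequenced, score is each peptide's frequency after selection divided by its frequency in the input.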
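For phosphorylation enrichment, bacterial display in this document: 11-residue human phosphosite peptides and single-mutation variants displayed on the E. coli surface, counted by deep sequencing, each peptide's frequency after selection divided by its frequency in the unselected input library; frequency after pTyr selection over input frequency; kinase dosed for 20-30% of maximal phosphorylation in three min.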

Sequence | phosphorylation enrichment
YEDALYTVLHR [UNC13D_Y61] | 7.21
PQGVRYTFTID [DCX_Y103_I104T_YF] | 0.529
IFLADYRIMEG [ALOX12B_Y318_YF] | 0.528
RGDCMYAPLLG [AR_Y269] | 5.61
SGIFQYNIAKF [FOXL2_Y83_I84N_YF] | 0.432
ILLAGCLVMVI [SLC28A3_Y113_Y113C] | 0.475
HGDSAYHSQRH [ERBB3_Y1132_R1127H] | 0.824
KILGRYYETGS [PAX2_Y72] | 0.504
APGNAYGDAGF [SYP_Y250_D248N_YF] | 0.322
PKEQKYSFLQD [GH1_Y68_N73D] | 0.628
AMIADYMFWLG [SPATA16_Y290] | 1.3
RASDFYSQQMA [GBP6_Y334_A331S_YF] | 0.675
RESSGYLRLAF [MEP1A_Y481] | 1.11
FPILNYKDIRK [CFAP221_Y798_M795I] | 0.49
SSSGGYGGGYG [KRT19_Y61_A60G] | 0.377
VTSLKYSTSPF [BRIP1_Y916_YF] | 0.403
LLREWYLPDPY [SIX3_Y225_Q227P] | 0.49
WQLEIYRASRP [ERCC4_Y594_R589W] | 0.45
DRLASYPDKVR [KRT14_Y129_L130P] | 0.372
MSRDIYSTDYY [NTRK1_Y676] | 5.12
VLNKGYRMVVN [HINT1_Y94_G89V] | 0.326
GKSHIYFWTLE [EML2_Y230] | 0.577
KIVATYRLCSE [DNAH3_Y1586] | 0.535
GRRGQYVMPSE [TTC7A_Y396_L399P] | 0.41
KTTGGYAGGLS [KRT8_Y419_S417G] | 0.583
NHYKIYNLYAE [PTEN_Y68_C71Y] | 2.43
VEDQYYCVDCY [FHL1_Y208] | 2.77
DERQPYVHMNG [IGF1R_Y1346_A1347V] | 0.484
LVQAEYWHDRI [PPT1_Y185_P189R] | 0.603

Target: Grb2 SH2 (UniProt P62993)
Sequence (P62993 whole entry, looked up): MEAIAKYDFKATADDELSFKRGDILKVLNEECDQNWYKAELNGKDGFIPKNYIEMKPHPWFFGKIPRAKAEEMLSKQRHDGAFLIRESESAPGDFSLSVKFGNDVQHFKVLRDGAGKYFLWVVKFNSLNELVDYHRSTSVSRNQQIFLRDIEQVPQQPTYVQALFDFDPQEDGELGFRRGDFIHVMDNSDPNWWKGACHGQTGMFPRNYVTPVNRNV
Experiment: SH2 binding enrichment of the phosphorylated peptide, bacterial display (enrichment ratio); higher = better substrate or ligand; peptides without Tyr show the background

Sequence | SH2 binding enrichment
YEDALYTVLHR [UNC13D_Y61] | 0.86
PQGVRYTFTID [DCX_Y103_I104T_YF] | 0.786
IFLADYRIMEG [ALOX12B_Y318_YF] | 1.16
RGDCMYAPLLG [AR_Y269] | 0.98
SGIFQYNIAKF [FOXL2_Y83_I84N_YF] | 1.21
ILLAGCLVMVI [SLC28A3_Y113_Y113C] | 0.92
HGDSAYHSQRH [ERBB3_Y1132_R1127H] | 0.996
KILGRYYETGS [PAX2_Y72] | 0.951
APGNAYGDAGF [SYP_Y250_D248N_YF] | 0.883
PKEQKYSFLQD [GH1_Y68_N73D] | 0.945
AMIADYMFWLG [SPATA16_Y290] | 1.16
RASDFYSQQMA [GBP6_Y334_A331S_YF] | 0.739
RESSGYLRLAF [MEP1A_Y481] | 1.18
FPILNYKDIRK [CFAP221_Y798_M795I] | 0.76
SSSGGYGGGYG [KRT19_Y61_A60G] | 0.924
VTSLKYSTSPF [BRIP1_Y916_YF] | 1.09
LLREWYLPDPY [SIX3_Y225_Q227P] | 1.58
WQLEIYRASRP [ERCC4_Y594_R589W] | 0.717
DRLASYPDKVR [KRT14_Y129_L130P] | 0.901
MSRDIYSTDYY [NTRK1_Y676] | 1.07
VLNKGYRMVVN [HINT1_Y94_G89V] | 0.707
GKSHIYFWTLE [EML2_Y230] | 0.902
KIVATYRLCSE [DNAH3_Y1586] | 0.685
GRRGQYVMPSE [TTC7A_Y396_L399P] | 0.782
KTTGGYAGGLS [KRT8_Y419_S417G] | 0.853
NHYKIYNLYAE [PTEN_Y68_C71Y] | 0.862
VEDQYYCVDCY [FHL1_Y208] | 1.35
DERQPYVHMNG [IGF1R_Y1346_A1347V] | 0.729
LVQAEYWHDRI [PPT1_Y185_P189R] | 0.699

Target: SHP2-C SH2
Experiment: as above

Sequence | SH2 binding enrichment
YEDALYTVLHR [UNC13D_Y61] | 0.46
PQGVRYTFTID [DCX_Y103_I104T_YF] | 0.729
IFLADYRIMEG [ALOX12B_Y318_YF] | 1.12
RGDCMYAPLLG [AR_Y269] | 0.739
SGIFQYNIAKF [FOXL2_Y83_I84N_YF] | 1.11
ILLAGCLVMVI [SLC28A3_Y113_Y113C] | 0.534
HGDSAYHSQRH [ERBB3_Y1132_R1127H] | 0.896
KILGRYYETGS [PAX2_Y72] | 0.6
APGNAYGDAGF [SYP_Y250_D248N_YF] | 0.639
PKEQKYSFLQD [GH1_Y68_N73D] | 0.895
AMIADYMFWLG [SPATA16_Y290] | 1.17
RASDFYSQQMA [GBP6_Y334_A331S_YF] | 0.575
RESSGYLRLAF [MEP1A_Y481] | 5.52
FPILNYKDIRK [CFAP221_Y798_M795I] | 0.696
SSSGGYGGGYG [KRT19_Y61_A60G] | 0.62
VTSLKYSTSPF [BRIP1_Y916_YF] | 0.664
LLREWYLPDPY [SIX3_Y225_Q227P] | 1.09
WQLEIYRASRP [ERCC4_Y594_R589W] | 0.546
DRLASYPDKVR [KRT14_Y129_L130P] | 0.587
MSRDIYSTDYY [NTRK1_Y676] | 0.752
VLNKGYRMVVN [HINT1_Y94_G89V] | 0.538
GKSHIYFWTLE [EML2_Y230] | 0.713
KIVATYRLCSE [DNAH3_Y1586] | 0.778
GRRGQYVMPSE [TTC7A_Y396_L399P] | 0.519
KTTGGYAGGLS [KRT8_Y419_S417G] | 0.575
NHYKIYNLYAE [PTEN_Y68_C71Y] | 0.698
VEDQYYCVDCY [FHL1_Y208] | 1.47
DERQPYVHMNG [IGF1R_Y1346_A1347V] | 0.704
LVQAEYWHDRI [PPT1_Y185_P189R] | 0.511

Target: c-Src SH2
Experiment: as above

Sequence | SH2 binding enrichment
YEDALYTVLHR [UNC13D_Y61] | 2.38
PQGVRYTFTID [DCX_Y103_I104T_YF] | 0.452
IFLADYRIMEG [ALOX12B_Y318_YF] | 0.987
RGDCMYAPLLG [AR_Y269] | 1.04
SGIFQYNIAKF [FOXL2_Y83_I84N_YF] | 0.899
ILLAGCLVMVI [SLC28A3_Y113_Y113C] | 0.533
HGDSAYHSQRH [ERBB3_Y1132_R1127H] | 0.508
KILGRYYETGS [PAX2_Y72] | 1.21
APGNAYGDAGF [SYP_Y250_D248N_YF] | 0.469
PKEQKYSFLQD [GH1_Y68_N73D] | 1.15
AMIADYMFWLG [SPATA16_Y290] | 0.806
RASDFYSQQMA [GBP6_Y334_A331S_YF] | 0.649
RESSGYLRLAF [MEP1A_Y481] | 0.991
FPILNYKDIRK [CFAP221_Y798_M795I] | 0.447
SSSGGYGGGYG [KRT19_Y61_A60G] | 0.462
VTSLKYSTSPF [BRIP1_Y916_YF] | 0.455
LLREWYLPDPY [SIX3_Y225_Q227P] | 1.1
WQLEIYRASRP [ERCC4_Y594_R589W] | 0.599
DRLASYPDKVR [KRT14_Y129_L130P] | 0.461
MSRDIYSTDYY [NTRK1_Y676] | 0.729
VLNKGYRMVVN [HINT1_Y94_G89V] | 0.424
GKSHIYFWTLE [EML2_Y230] | 0.548
KIVATYRLCSE [DNAH3_Y1586] | 0.512
GRRGQYVMPSE [TTC7A_Y396_L399P] | 1.92
KTTGGYAGGLS [KRT8_Y419_S417G] | 0.416
NHYKIYNLYAE [PTEN_Y68_C71Y] | 0.675
VEDQYYCVDCY [FHL1_Y208] | 1.42
DERQPYVHMNG [IGF1R_Y1346_A1347V] | 0.705
LVQAEYWHDRI [PPT1_Y185_P189R] | 0.685

Source: the supplement of paper PMC10065799, “High-throughput profiling of sequence recognition by tyrosine kinases and SH2 domains using bacterial peptide display” (eLife, 2023)
